Results taken from the supplement of paper PMC5998384.

Columns and labels:
HeLa Kyoto [1] = assay: melting temperature (median over replicates), in situ; higher = more thermally stable
HeLa Kyoto [2] = assay: solubility in G1/S (NP-40 vs SDS abundance) (log2 ratio); higher = more soluble; settings: cell cycle stage: G1/S
HeLa Kyoto [3] = assay: solubility change mitosis vs G1/S (difference of NP-40 vs SDS log2 ratios) (log2 ratio difference); higher = more soluble in mitosis
HeLa Kyoto [4] = assay: thermal stability score vs G1/S (z-score of summed log2 fold changes over temperatures); higher = more thermally stable than in G1/S
[5] = cell cycle stage: early G1 (4.5 h after nocodazole release)
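Wherever melting temperature (median over replicates), in situ is given: HeLa Kyoto cells synchronized by double thymidine or nocodazole block, proteins quantified by TMT10plex mass spectrometry, three independent biological replicates.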
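Wherever solubility change mitosis vs G1/S (difference of NP-40 vs SDS log2 ratios) is given: synchronized HeLa Kyoto cells (double thymidine block for G1/S, nocodazole release for mitosis), protein amounts in NP-40 versus SDS lysates quantified by mass spectrometry, three biological replicates.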
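Wherever solubility in G1/S (NP-40 vs SDS abundance) is given: HeLa Kyoto cells arrested at G1/S by double thymidine block, proteins quantified by TMT10plex mass spectrometry in mild NP-40 versus SDS extracts, three biological replicates.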
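Wherever thermal stability score vs G1/S (z-score of summed log2 fold changes over temperatures) is given: synchronized HeLa Kyoto cells, proteins quantified by TMT10plex mass spectrometry, three biological replicates, mitosis taken 0.5 h after nocodazole release, G1/S directly after double thymidine block.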

| Sequence | melting temperature (HeLa Kyoto [1]; cell cycle stage: G1/S) [°C] | melting temperature (HeLa Kyoto [1]; cell cycle stage: mitosis) [°C] | solubility in G1/S (log2) (HeLa Kyoto [2]) | solubility change mitosis (log2) (HeLa Kyoto [3]) | thermal stability score (HeLa Kyoto [4]; [5]) | thermal stability score (HeLa Kyoto [4]; cell cycle stage: mitosis) |
| --- | --- | --- | --- | --- | --- | --- |
| MTDGILGKAATMEIPIHGNGEARQLPEDDGLEQDLQQVMVSGPNLNETSIVSGGYGGSGDGLIPTGSGRHPSHSTTPSGPGDEVARGIAGEKFDIVKKWGINTYKCTKQLLSERFGRGSRTVDLELELQIELLRETKRKYESVLQLGRALTAHLYSLLQTQHALGDAFADLSQKSPELQEEFGYNAETQKLLCKNGETLLGAVNFFVSSINTLVTKTMEDTLMTVKQYEAARLEYDAYRTDLEELSLGPRDAGTRGRLESAQATFQAHRDKYEKLRGDVAIKLKFLEENKIKVMHKQLLLFHNAVSAYFAGNQKQLEQTLQQFNIKLRPPGAEKPSWLEEQ [ARFIP2] | 51.1 | 50.9 | 0.602 | 0.0365 | -0.945 | -2.87 |
| MTDNIPLQPVRQKKRMDSRPRAGCCEWLRCCGGGEARPRTVWLGHPEKRDQRYPRNVINNQKYNFFTFLPGVLFNQFKYFFNLYFLLLACSQFVPEMRLGALYTYWVPLGFVLAVTVIREAVEEIRCYVRDKEVNSQVYSRLTARGTVKVKSSNIQVGDLIIVEKNQRVPADMIFLRTSEKNGSCFLRTDQLDGETDWKLRLPVACTQRLPTAADLLQIRSYVYAEEPNIDIHNFVGTFTREDSDPPISESLSIENTLWAGTVVASGTVVGVVLYTGRELRSVMNTSNPRSKIGLFDLEVNCLTKILFGALVVVSLVMVALQHFAGRWYLQIIRFLLLFSNIIPISLRVNLDMGKIVYSWVIRRDSKIPGTVVRSSTIPEQLGRISYLLTDKTGTLTQNEMIFKRLHLGTVAYGLDSMDEVQSHIFSIYTQQSQDPPAQKGPTLTTKVRRTMSSRVHEAVKAIALCHNVTPVYESNGVTDQAEAEKQYEDSCRVYQASSPDEVALVQWTESVGLTLVGRDQSSMQLRTPGDQILNFTILQIFPFTYESKRMGIIVRDESTGEITFYMKGADVVMAGIVQYNDWLEEECGNMAREGLRVLVVAKKSLAEEQYQDFEARYVQAKLSVHDRSLKVATVIESLEMEMELLCLTGVEDQLQADVRPTLETLRNAGIKVWMLTGDKLETATCTAKNAHLVTRNQDIHVFRLVTNRGEAHLELNAFRRKHDCALVISGDSLEVCLKYYEYEFMELACQCPAVVCCRCAPTQKAQIVRLLQERTGKLTCAVGDGGNDVSMIQESDCGVGVEGKEGKQASLAADFSITQFKHLGRLLMVHGRNSYKRSAALSQFVIHRSLCISTMQAVFSSVFYFASVPLYQGFLIIGYSTIYTMFPVFSLVLDKDVKSEVAMLYPELYKDLLKGRPLSYKTFLIWVLISIYQGSTIMYGALLLFESEFVHIVAISFTSLILTELLMVALTIQTWHWLMTVAELLSLACYIASLVFLHEFIDVYFIATLSFLWKVSVITLVSCLPLYVLKYLRRRFSPPSYSKLTS [ATP9A] | 57.4 | 58.4 | -0.6 | 0.0184 | -4.08 | -4.01 |
| MTDQAFVTLTTNDAYAKGALVLGSSLKQHRTTRRLVVLATPQVSDSMRKVLETVFDEVIMVDVLDSGDSAHLTLMKRPELGVTLTKLHCWSLTQYSKCVFMDADTLVLANIDDLFDREELSAAPDPGWPDCFNSGVFVYQPSVETYNQLLHLASEQGSFDGGDQGILNTFFSSWATTDIRKHLPFIYNLSSISIYSYLPAFKVFGASAKVVHFLGRVKPWNYTYDPKTKSVKSEAHDPNMTHPEFLILWWNIFTTNVLPLLQQFGLVKDTCSYVNVLSDLVYTLAFSCGFCRKEDVSGAISHLSLGEIPAMAQPFVSSEERKERWEQGQADYMGADSFDNIKRKLDTYLQ [GYG1] | 56.3 | 52.1 | 0.0958 | -0.149 | -3.5 | -5.58 |
| MTDSKYFTTNKKGEIFELKAELNNEKKEKRKEAVKKVIAAMTVGKDVSSLFPDVVNCMQTDNLELKKLVYLYLMNYAKSQPDMAIMAVNSFVKDCEDPNPLIRALAVRTMGCIRVDKITEYLCEPLRKCLKDEDPYVRKTAAVCVAKLHDINAQMVEDQGFLDSLRDLIADSNPMVVANAVAALSEISESHPNSNLLDLNPQNINKLLTALNECTEWGQIFILDCLSNYNPKDDREAQSICERVTPRLSHANSAVVLSAVKVLMKFLELLPKDSDYYNMLLKKLAPPLVTLLSGEPEVQYVALRNINLIVQKRPEILKQEIKVFFVKYNDPIYVKLEKLDIMIRLASQANIAQVLAELKEYATEVDVDFVRKAVRAIGRCAIKVEQSAERCVSTLLDLIQTKVNYVVQEAIVVIRDIFRKYPNKYESIIATLCENLDSLDEPDARAAMIWIVGEYAERIDNADELLESFLEGFHDESTQVQLTLLTAIVKLFLKKPSETQELVQQVLSLATQDSDNPDLRDRGYIYWRLLSTDPVTAKEVVLSEKPLISEETDLIEPTLLDELICHIGSLASVYHKPPNAFVEGSHGIHRKHLPIHHGSTDAGDSPVGTTTATNLEQPQVIPSQGDLLGDLLNLDLGPPVNVPQVSSMQMGAVDLLGGGLDSLVGQSFIPSSVPATFAPSPTPAVVSSGLNDLFELSTGIGMAPGGYVAPKAVWLPAVKAKGLEISGTFTHRQGHIYMEMNFTNKALQHMTDFAIQFNKNSFGVIPSTPLAIHTPLMPNQSIDVSLPLNTLGPVMKMEPLNNLQVAVKNNIDVFYFSCLIPLNVLFVEDGKMERQVFLATWKDIPNENELQFQIKECHLNADTVSSKLQNNNVYTIAKRNVEGQDMLYQSLKLTNGIWILAELRIQPGNPNYTLSLKCRAPEVSQYIYQVYDSILKN [AP2B1] | 51.6 | 52 | 0.198 | -0.0379 | -1.91 | 3.3 |
| MTDTRRRVKVYTLNEDRQWDDRGTGHVSSGYVERLKGMSLLVRAESDGSLLLESKINPNTAYQKQQDTLIVWSEAENYDLALSFQEKAGCDEIWEKICQVQGKDPSVDITQDLVDESEEERFDDMSSPGLELPSCELSRLEEIAELVASSLPSPLRREKLALALENEGYIKKLLELFHVCEDLENIEGLHHLYEIIKGIFLLNRTALFEVMFSEECIMDVIGCLEYDPALSQPRKHREFLTKTAKFKEVIPISDPELKQKIHQTYRVQYIQDMVLPTPSVFEENMLSTLHSFIFFNKVEIVGMLQEDEKFLTDLFAQLTDEATDEEKRQELVNFLKEFCAFSQTLQPQNRDAFFKTLSNMGILPALEVILGMDDTQVRSAATDIFSYLVEYNPSMVREFVMQEAQQNDDVSKKLTEQKITSKDILLINLIIEHMICDTDPELGGAVQLMGLLRTLVDPENMLATANKTEKTEFLGFFYKHCMHVLTAPLLANTTEDKPSKDDFQTAQLLALVLELLTFCVEHHTYHIKNYIINKDILRRVLVLMASKHAFLALCALRFKRKIIGLKDEFYNRYIMKSFLFEPVVKAFLNNGSRYNLMNSAIIEMFEFIRVEDIKSLTAHVIENYWKALEDVDYVQTFKGLKLRFEQQRERQDNPKLDSMRSILRNHRYRRDARTLEDEEEMWFNTDEDDMEDGEAVVSPSDKTKNDDDIMDPISKFMERKKLKESEEKEVLLKTNLSGRQSPSFKLSLSSGTKTNLTSQSSTTNLPGSPGSPGSPGSPGSPGSVPKNTSQTAAITTKGGLVGLVDYPDDDEDDDEDEDKEDTLPLSKKAKFDS [PPP4R3A] | 52.9 | 52 | 0.0151 | -0.214 | -0.659 | 0.337 |
